Our source for the stoichiometry N (gp67 per Imp1) values is paper doi:10.1101/2024.03.27.586873.

The target in this experiment is 6xHis-tagged Imp1 (ΦKZ gp69) (phage ΦKZ). Description: SEC + other: mass photometry.

On to “FLAG-tagged Imp6 (ΦKZ gp67) (natural protein)”, for which the stoichiometry N (gp67 per Imp1) stood at 2.
